Assay results from patent US20190316116A1 (MONASH UNIVERSITY, published 2019).

Target: lysozyme (UniProt P00698 19-147)
Experiment: method not stated (data not shown)

lysozyme, sequence (P00698 19-147 limits assumed): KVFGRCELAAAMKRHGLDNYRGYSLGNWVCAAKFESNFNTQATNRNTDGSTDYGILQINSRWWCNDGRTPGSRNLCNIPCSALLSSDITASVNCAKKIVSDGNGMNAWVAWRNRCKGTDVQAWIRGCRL

B1: FN3con.DE0.4.1_graft_v1 (designed binder)
chain: PSPPGNLRVTDVTSTSVTLSWRGYPWATGYRVEYREAGGEWKEVTVPGDLSHRYTVTGLKPGTEYEFRVRAVNRVGRTFDTPGPSSVSVTT
notes: Made by gene synthesis, expressed in E. coli and purified; also called the designed graft; the graft
B1 showed a Kd of roughly 100 µM.
